Experimental data taken from US20260297200 (published 2026).

Legend:
mouse EGFR-His = biological target: T1, mouse EGFR-His (mouse); assay: ELISA, 10 nM
T1 chain: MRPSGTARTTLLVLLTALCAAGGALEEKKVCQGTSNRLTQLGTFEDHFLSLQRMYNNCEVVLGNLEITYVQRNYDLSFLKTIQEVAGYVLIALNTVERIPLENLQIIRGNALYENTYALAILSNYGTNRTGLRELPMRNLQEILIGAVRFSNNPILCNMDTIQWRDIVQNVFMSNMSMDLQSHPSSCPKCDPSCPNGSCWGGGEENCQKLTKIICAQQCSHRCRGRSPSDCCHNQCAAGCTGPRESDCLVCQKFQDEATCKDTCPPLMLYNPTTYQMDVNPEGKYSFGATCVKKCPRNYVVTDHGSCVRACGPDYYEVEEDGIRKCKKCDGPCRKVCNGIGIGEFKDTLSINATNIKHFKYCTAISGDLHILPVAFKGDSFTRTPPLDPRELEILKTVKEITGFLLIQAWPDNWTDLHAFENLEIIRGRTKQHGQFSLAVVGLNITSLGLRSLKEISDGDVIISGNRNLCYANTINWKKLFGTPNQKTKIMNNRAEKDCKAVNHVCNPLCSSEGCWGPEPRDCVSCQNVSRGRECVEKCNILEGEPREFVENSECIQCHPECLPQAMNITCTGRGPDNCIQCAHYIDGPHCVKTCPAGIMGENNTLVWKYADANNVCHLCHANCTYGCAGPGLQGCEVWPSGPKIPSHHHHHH

MET-huFc = MET-huFc (human); assay: ELISA
EGFR-moFc S442R = EGFR-moFc S442R (human); assay: ELISA

B1: Panitumumab (antibody, V domains shown)
VH: QVQLQESGPGLVKPSETLSLTCTVSGGSVSSGDYYWTWIRQSPGKGLEWIGHIYYSGNTNYNPSLKSRLTISIDTSKTQFSLKLSSVTAADTAIYYCVRDRVTGAFDIWGQGTMVTVSS
VL: DIQMTQSPSSLSASVGDRVTITCQASQDISNYLNWYQQKPGKAPKLLIYDASNLETGVPSRFSGSGSGTDFTFTISSLQPEDIATYFCQHFDHLPLAFGGGTKVEIKR
Mouse EGFR-His
  binding result: no binding

B2: eIg 1+1 H10x5D5 MET arm (antibody, V domains shown)
VH: EVQLVESGGGLVQPGGSLRLSCAASGYTFTSYWLHWVRQAPGKGLEWVGMIDPSNSDTRFNPNFKDRFTISADTSKNTAYLQMNSLRAEDTAVYYCATYRSYVTPLDYWGQGTLVTVSS
VL: DIQMTQSPSSLSASVGDRVTITCKSSQSLLYTSSQKNYLAWYQQKPGKAPKLLIYWASTRESGVPSRFSGSGSGTDFTLTISSLQPEDFATYYCQQYYAYPWTFGQGTKVEIKR
MET-huFc
  EC50: 4.1 nM

B3: Necitumumab (antibody, V domains shown)
VH: QVQLQESGPGLVKPSQTLSLTCTVSGGSISSGDYYWSWIRQPPGKGLEWIGYIYYSGSTDYNPSLKSRVTMSVDTSKNQFSLKVNSVTAADTAVYYCARVSIFGVGTFDYWGQGTLVTVSS
VL: EIVMTQSPATLSLSPGERATLSCRASQSVSSYLAWYQQKPGQAPRLLIYDASNRATGIPARFSGSGSGTDFTLTISSLEPEDFAVYYCHQYGSTPLTFGGGTKAEIKR
EGFR-moFc S442R
  binding result: no binding
